This is an account of results in PMC8005835.

The test addresses Von Willebrand factor (VWF) (human) (UniProt P04275). The test is described as follows: specific fVIII activity of the purified complex; heparin-Sepharose purified starting material, VWF 0.54 mg/ml and fVIII activity 38 U/ml (one-stage coagulation assay); mass ratio worked out with a cited specific activity of fVIII of ~5000 U/mg.

For “blood coagulation factor VIII (fVIII) (natural protein)”, the percentage mass ratio of fVIII to VWF is 1%.
